Experimental data published in patent US11795460B2, “Compositions and methods for TTR gene editing and treating ATTR amyloidosis” (Intellia Therapeutics, Inc., priority 2017, dated 2023).
Strand notation (5' to 3'): a small letter for the sugar, then the base; units joined by * are phosphorothioate-linked, units joined directly phosphodiester-linked; [ ] holds rarer units or linkages, { } end groups; capitals alone tell only the bases. m = 2'-O-methyl; r = 2'-OH (RNA)

What was measured:
[1] = system: TTR; experiment: TTR editing in primary human hepatocytes transfected with Spy Cas9 protein and sgRNAs (Table 12); format: cell-based; conditions: primary human hepatocytes transfected with Spy Cas9 protein (RNP) and sgRNAs
Experimental: (§1) Primary liver hepatocytes. Primary human liver hepatocytes (PHH) and primary cynomolgus liver hepatocytes (PCH) (Gibco) were cultured per the manufacturer's protocol (Invitrogen, protocol 11.28.2012). In brief, the cells were thawed and resuspended in hepatocyte thawing medium with supplements (Gibco, Cat. CM7000) followed by centrifugation at 100 g for 10 minutes for human and 80 g for 4 minutes for cyno. The supernatant was discarded and the pelleted cells resuspended in hepatocyte plating medium plus supplement pack (Invitrogen, Cat. A1217601 and CM3000). Cells were counted and plated on Bio-coat collagen I coated 96-well plates (ThermoFisher, Cat. 877272) at a density of 33,000 cells/well for human or 60,000 cells/well for cyno (or 65,000 cells/well when assaying effects on TTR protein, described further below). Plated cells were allowed to settle and adhere for 6 or 24 hours in a tissue culture incubator at 37° C. and 5% CO2 atmosphere. After incubation cells were checked for monolayer formation and media was replaced with hepatocyte culture medium with serum-free supplement pack (Invitrogen, Cat. A1217601 and CM4000).
[…] formation was performed prior to electroporation or transfection of Spy Cas9 protein loaded with guide RNAs (RNPs) onto cells. For dual guide (dgRNAs), individual crRNA and trRNA was pre-annealed by mixing equivalent amounts of reagent and incubating at 95° C. for 2 min and cooling to room temperature. Single guide (sgRNAs) were boiled at 95° C. for 2 min and cooling to room temperature. The boiled dgRNA or sgRNA was incubated with Spy Cas9 protein in Optimem for 10 minutes at room temperature to form a ribonucleoprotein (RNP) complex.
For RNP lipoplex transfections, cells were transfected with Lipofectamine RNAiMAX (ThermoFisher, Cat. 13778150) per the manufacturer's protocol. Cells were transfected with an RNP containing Spy Cas9 (10 nM), individual guide (10 nM), tracer RNA (10 nM), Lipofectamine RNAiMAX (1.0 μL/well) and OptiMem. RNP formation was performed as described above.
Transfected cells were harvested post-transfection at 24, 48, or 72 hours. The genomic DNA was extracted from each well of a 96-well plate using 50 μL/well BuccalAmp DNA Extraction solution (Epicentre, Cat. QE09050) per manufacturer's protocol. All DNA samples were subjected to PCR and subsequent NGS analyses, as described herein.
(§2) To quantitatively determine the efficiency of editing at the target location in the genome, sequencing was utilized to identify the presence of insertions and deletions introduced by gene editing.
(§3) Primers were designed around the target site within the gene of interest (e.g. TTR), and the genomic area of interest was amplified.
(§4) Additional PCR was performed per the manufacturer's protocols (Illumina) to add chemistry for sequencing. The amplicons were sequenced on an Illumina MiSeq instrument. The reads were aligned to a reference genome (e.g., the human reference genome (hg38), the cynomologus reference genome (mf5), the rat reference genome (rn6), or the mouse reference genome (mm10)) after eliminating those having low quality scores. The resulting files containing the reads were mapped to the reference genome (BAM files), where reads that overlapped the target region of interest were selected and the number of wild type reads versus the number of reads which contain an insertion, substitution, or deletion was calculated.
(§5) The editing percentage (e.g., the “editing efficiency” or “percent editing” or “indel frequency”) is defined as the total number of sequence reads with insertions/deletions (“indels”) or substitutions over the total number of sequence reads, including wild type.
Guides in modified sgRNA format targeting human and/or cyno TTR were delivered to primary human hepatocytes and primary cyno hepatocytes as described in Example 1. […]

[2] = system: TTR; experiment: EC50 and maximum editing in primary cyno hepatocytes treated with LNP formulated U-depleted Spy Cas9 mRNA and sgRNAs (Tables 20, 22); format: cell-based, cynomolgus monkey; design: key: % of sequence reads with indels or substitutions over total reads; conditions: dose response
Experimental: as §1
For LNPs prepared using the cross-flow technique, the LNPs were formed by impinging jet mixing of the lipid in ethanol with two volumes of RNA solutions and one volume of water. The lipid in ethanol is mixed through a mixing cross with the two volumes of RNA solution. A fourth stream of water is mixed with the outlet stream of the cross through an inline tee. (See WO2016010840 FIG. 2.) The LNPs were held for 1 hour at room temperature, and further diluted with water (approximately 1:1 v/v). Diluted LNPs were concentrated using tangential flow filtration on a flat sheet cartridge (Sartorius, 100 kD MWCO) and then buffer exchanged by diafiltration into 50 mM Tris, 45 mM NaCl, 5% (w/v) sucrose, pH 7.5 (TSS). Alternatively, the final buffer exchange into TSS was completed with PD-10 desalting columns (GE). If required, formulations were concentrated by centrifugation with Amicon 100 kDa centrifugal filters (Millipore). The resulting mixture was then filtered using a 0.2 μm sterile filter. The final LNP was stored at 4° C. or −80° C. until further use.
as §2, §3, §4, §5
Lipid nanoparticle formulations of modified sgRNAs targeting human TTR and the cyno matched sgRNA sequences were tested on primary human hepatocytes and primary cyno hepatocytes in a dose response curve. Primary human and cyno hepatocytes were plated as described in Example 1. Both cell lines were incubated at 37° C., 5% CO2 for 24 hours prior to treatment with LNPs. […]

[3] = system: off-target integration sites; experiment: Off-target oligo insertion based assay in primary human hepatocytes (Table 30); format: cell-based; conditions: TTR sgRNAs in PHH, 100 ng Cas9 mRNA, 25 nM sgRNA, 12.5 nM donor oligo
Experimental: Off-target analysis of sgRNAs targeting TTR was performed in primary human hepatocytes (PHH) as described in Example 5, with the following modifications. PHH were plated at a density of 33,000 cells per well on collagen-coated 96-well plates as described in Example 1. Twenty-four hours post plating, cells were washed with media and transfected using Lipofectamine RNAiMAX (ThermoFisher, Cat. 13778150) as described in Example 1. Cells were transfected with a lipoplex containing 100 ng Cas9 mRNA, immediately followed by the addition of another lipoplex containing 25 nM of the sgRNA and 12.5 nM of the donor oligo (0.3 μL/well). Cells were lysed 48 hours post-transfection and gDNA was extracted and analyzed as further described in Example 5. The data is graphically represented in FIG. 20.
Fewer sites were detected in PHH for every guide tested as compared to the HekCas9 cell line, with no unique sites detected in PHH alone.

[4] = Table 20, LNP with U-depleted Spy Cas9 mRNA and human specific sgRNAs

B1: G000494: TTR sgRNA modified sequence, Human, SEQ ID No. 101; guide sequence of CR003360 (nucleic acid)
guide: mG*mU*mG*rArGrUrCrUrGrGrArGrArGrCrUrGrCrArUrGrUrUrUrUrArGrAmGmCmUmAmGmAmAmAmUmAmGmCrArArGrUrUrArArArArUrArArGrGrCrUrArGrUrCrCrGrUrUrArUrCrAmAmCmUmUmGmAmAmAmAmAmGmUmGmGmCmAmCmCmGmAmGmUmCmGmGmUmGmCmU*mU*mU*mU
- Avg % Deletion [1]: 0.77%
- Avg % Edit [1]: 62.23%
- Avg % Insert [1]: 61.47%
- Max Editing [2, 4]: 60.84
- # Sites in PHH [3]: 0

B2: G000499: TTR sgRNA modified sequence, Human, SEQ ID No. 106; guide sequence of CR005303 (nucleic acid)
guide: mU*mG*mA*rArUrCrCrArArGrUrGrUrCrCrUrCrUrGrArGrUrUrUrUrArGrAmGmCmUmAmGmAmAmAmUmAmGmCrArArGrUrUrArArArArUrArArGrGrCrUrArGrUrCrCrGrUrUrArUrCrAmAmCmUmUmGmAmAmAmAmAmGmUmGmGmCmAmCmCmGmAmGmUmCmGmGmUmGmCmU*mU*mU*mU
- Avg % Deletion [1]: 1.17%
- Avg % Edit [1]: 66.40%
- Avg % Insert [1]: 65.23%
- Max Editing [2, 4]: 74.94
- # Sites in PHH [3]: 1

B3: G000501: TTR sgRNA modified sequence, Human, SEQ ID No. 108; guide sequence of CR005300 (nucleic acid)
guide: mU*mC*mA*rCrArGrArArArCrArCrUrCrArCrCrGrUrArGrUrUrUrUrArGrAmGmCmUmAmGmAmAmAmUmAmGmCrArArGrUrUrArArArArUrArArGrGrCrUrArGrUrCrCrGrUrUrArUrCrAmAmCmUmUmGmAmAmAmAmAmGmUmGmGmCmAmCmCmGmAmGmUmCmGmGmUmGmCmU*mU*mU*mU
- Avg % Deletion [1]: 6.00%
- Avg % Edit [1]: 60.93%
- Avg % Insert [1]: 55.13%
- # Sites in PHH [3]: 0

B4: G000570: TTR sgRNA modified sequence, Human, SEQ ID No. 111; guide sequence of CR003347 (nucleic acid)
guide: mC*mA*mU*rUrGrArUrGrGrCrArGrGrArCrUrGrCrCrUrGrUrUrUrUrArGrAmGmCmUmAmGmAmAmAmUmAmGmCrArArGrUrUrArArArArUrArArGrGrCrUrArGrUrCrCrGrUrUrArUrCrAmAmCmUmUmGmAmAmAmAmAmGmUmGmGmCmAmCmCmGmAmGmUmCmGmGmUmGmCmU*mU*mU*mU
- Max Editing [2, 4]: 96.73
- # Sites in PHH [3]: 1

B5: G000497: TTR sgRNA modified sequence, Human, SEQ ID No. 104; guide sequence of CR003335 (nucleic acid)
guide: mC*mU*mG*rCrUrCrCrUrCrCrUrCrUrGrCrCrUrUrGrCrGrUrUrUrUrArGrAmGmCmUmAmGmAmAmAmUmAmGmCrArArGrUrUrArArArArUrArArGrGrCrUrArGrUrCrCrGrUrUrArUrCrAmAmCmUmUmGmAmAmAmAmAmGmUmGmGmCmAmCmCmGmAmGmUmCmGmGmUmGmCmU*mU*mU*mU
- Avg % Deletion [1]: 8.73%
- Avg % Edit [1]: 59.67%
- Avg % Insert [1]: 51.10%
- # Sites in PHH [3]: 3

B6: G000502: TTR Cyno specific sgRNA modified sequence, SEQ ID No. 114; guide sequence of CR000689; cross homologous between mouse and cyno (nucleic acid)
guide: mA*mC*mA*rCrArArArUrArCrCrArGrUrCrCrArGrCrGrGrUrUrUrUrArGrAmGmCmUmAmGmAmAmAmUmAmGmCrArArGrUrUrArArArArUrArArGrGrCrUrArGrUrCrCrGrUrUrArUrCrAmAmCmUmUmGmAmAmAmAmAmGmUmGmGmCmAmCmCmGmAmGmUmCmGmGmUmGmCmU*mU*mU*mU
- Max Editing ([2]; Table 22, LNP with U-depleted Spy Cas9 mRNA and cyno specific sgRNAs): 100.05

B7: G000572: TTR sgRNA modified sequence, Human, SEQ ID No. 113; guide sequence of CR003385 (nucleic acid)
guide: mC*mC*mC*rCrUrArCrUrCrCrUrArUrUrCrCrArCrCrArGrUrUrUrUrArGrAmGmCmUmAmGmAmAmAmUmAmGmCrArArGrUrUrArArArArUrArArGrGrCrUrArGrUrCrCrGrUrUrArUrCrAmAmCmUmUmGmAmAmAmAmAmGmUmGmGmCmAmCmCmGmAmGmUmCmGmGmUmGmCmU*mU*mU*mU
- Max Editing [2, 4]: 100.31
- # Sites in PHH [3]: 2

B8: G000567: TTR sgRNA modified sequence, Human, SEQ ID No. 109; guide sequence of CR003352 (nucleic acid)
guide: mG*mA*mA*rArGrGrCrUrGrCrUrGrArUrGrArCrArCrCrGrUrUrUrUrArGrAmGmCmUmAmGmAmAmAmUmAmGmCrArArGrUrUrArArArArUrArArGrGrCrUrArGrUrCrCrGrUrUrArUrCrAmAmCmUmUmGmAmAmAmAmAmGmUmGmGmCmAmCmCmGmAmGmUmCmGmGmUmGmCmU*mU*mU*mU
- Max Editing [2, 4]: 97.06
- # Sites in PHH [3]: 0

B9: G000568: TTR sgRNA modified sequence, Human, SEQ ID No. 110; guide sequence of CR003391 (nucleic acid)
guide: mG*mG*mC*rUrGrUrCrGrUrCrArCrCrArArUrCrCrCrArGrUrUrUrUrArGrAmGmCmUmAmGmAmAmAmUmAmGmCrArArGrUrUrArArArArUrArArGrGrCrUrArGrUrCrCrGrUrUrArUrCrAmAmCmUmUmGmAmAmAmAmAmGmUmGmGmCmAmCmCmGmAmGmUmCmGmGmUmGmCmU*mU*mU*mU
- Max Editing [2, 4]: 87.93
- # Sites in PHH [3]: 11

B10: G000498: TTR sgRNA modified sequence, Human, SEQ ID No. 105; guide sequence of CR003359 (nucleic acid)
guide: mA*mG*mU*rGrArGrUrCrUrGrGrArGrArGrCrUrGrCrArGrUrUrUrUrArGrAmGmCmUmAmGmAmAmAmUmAmGmCrArArGrUrUrArArArArUrArArGrGrCrUrArGrUrCrCrGrUrUrArUrCrAmAmCmUmUmGmAmAmAmAmAmGmUmGmGmCmAmCmCmGmAmGmUmCmGmGmUmGmCmU*mU*mU*mU
- Avg % Deletion [1]: 12.70%
- Avg % Edit [1]: 72.80%
- Avg % Insert [1]: 60.17%
- # Sites in PHH [3]: 19

B11: G000571: TTR sgRNA modified sequence, Human, SEQ ID No. 112; guide sequence of CR005301 (nucleic acid)
guide: mG*mU*mC*rArCrArGrArArArCrArCrUrCrArCrCrGrUrGrUrUrUrUrArGrAmGmCmUmAmGmAmAmAmUmAmGmCrArArGrUrUrArArArArUrArArGrGrCrUrArGrUrCrCrGrUrUrArUrCrAmAmCmUmUmGmAmAmAmAmAmGmUmGmGmCmAmCmCmGmAmGmUmCmGmGmUmGmCmU*mU*mU*mU
- Max Editing [2, 4]: 97.03
- # Sites in PHH [3]: 1
